Measured values taken from publication PMC11889585, “Characterization of the putative yeast mitochondrial triacylglycerol lipase Tgl2” (The Journal of Biological Chemistry, 2025).

Molecular target: the molecule itself
Experiment: non-reducing SDS-PAGE with immunoblot; whole cell lysate, crude or isolated mitochondria of yeast (tgl2Δ, yme1Δ, other deletion strains) expressing HA-tagged Tgl2 variants; reducing agents omitted during SDS-PAGE; anti-HA immunodecoration; dimer-sized band

B1: N terminally hemagglutinin (HA) tagged Tgl2 (natural protein, S. cerevisiae, UniProt P54857 1-326, looked up)
chain: MKNDNKANDIIIDSVKVPDSYKPPKNPIVFCHGLSGFDKLILIPSVFHLTNLISNSIVHNMAENFMQDDEDKSDNKYTNLLEIEYWIGVKKFLQSKGCTVITTKVPGFGSIEERAMALDAQLQKEVKKIESKDKRHSLNLIAHSMGGLDCRYLICNIKNRNYDILSLTTISTPHRGSEMADYVVDLFENLNALRVSQKILPICFYQLTTAYMKYFNLVTPNSPKVSYFSYGCSFVPKWYNVFCTPWKIVYERSKGCPNDGLVTINSSKWGEYRGTLKDMDHLDVINWKNKLQDDWSKFFRTTTVGEKVDILNFYLKITDDLARKGF
notes: Tgl2, putative mitochondrial triacylglycerol lipase of the intermembrane space, S. cerevisiae; also called HA-Tgl2; native-like HA-Tgl2; source: S. cerevisiae (tgl2Δ, yme1Δ and other deletion strains), overexpressed from plasmid pYX142; in whole cell lysate, crude or isolated mitochondria; not shown: HA, N-terminal, kept
stoichiometry N: 2
